These are literature values, as cited in article PMC11736853.

Data set [1] concerns the target CK2β triazole cyclised peptide (Homo sapiens) (UniProt P67870). Description: ITC.
In data set [2] the target is Nrf2 peptide 41 (Homo sapiens) (UniProt Q16236).
For data set [3], the target named is AIF peptide 40 (Homo sapiens) (UniProt O95831). Description: SPR. For orientation: Surface plasmon resonance follows binding to a sensor surface in real time, without labels.
Data set [4] deals with AIF peptide 39 (Homo sapiens) (UniProt O95831). The data set can be described thus: SPR.
Chain of AIF peptide 39 (Homo sapiens) (O95831 370-394): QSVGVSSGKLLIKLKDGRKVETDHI
Data set [5] has as its target AIF bicyclic peptide 63 (Homo sapiens) (UniProt O95831).
For data set [6], the target named is AIF peptide 39 (Homo sapiens) (UniProt O95831).
The target of data set [7] is BCL9 peptide 54 351-375 (Homo sapiens) (UniProt O00512). The data set can be described thus: competitive FP.
Chain of BCL9 peptide 54 351-375 (Homo sapiens) (O00512 351-375): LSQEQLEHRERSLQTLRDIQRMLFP
Data set [8] deals with BCL9 peptide 53 347-381 (Homo sapiens) (UniProt O00512). The data set can be described thus: competitive FP.
Chain of BCL9 peptide 53 347-381 (Homo sapiens) (O00512 347-381): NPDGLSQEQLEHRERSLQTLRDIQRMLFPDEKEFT
Data set [9] shares this target. The data set can be described thus: FP.
The target in data set [10] is iNOS peptide 24 (Homo sapiens) (UniProt P35228). The data set can be described thus: ITC. Background: In ITC the heat of successive injections is recorded.
The target of a further data set is RAP1 (Homo sapiens) (UniProt Q9NYB0).
Chain of RAP1 (Homo sapiens) (Q9NYB0 2-399): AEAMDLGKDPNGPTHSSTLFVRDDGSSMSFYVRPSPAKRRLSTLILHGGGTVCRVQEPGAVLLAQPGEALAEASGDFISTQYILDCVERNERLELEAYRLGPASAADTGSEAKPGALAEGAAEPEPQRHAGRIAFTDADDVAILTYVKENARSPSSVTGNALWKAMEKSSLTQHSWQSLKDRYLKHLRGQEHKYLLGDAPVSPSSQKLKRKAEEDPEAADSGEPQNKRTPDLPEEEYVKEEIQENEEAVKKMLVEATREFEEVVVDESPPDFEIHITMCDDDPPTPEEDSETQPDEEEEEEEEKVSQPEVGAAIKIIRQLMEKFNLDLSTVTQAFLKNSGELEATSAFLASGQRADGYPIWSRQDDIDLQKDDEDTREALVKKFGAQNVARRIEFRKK
The target of data set [11] is TRF2 41-residue sequence (Homo sapiens) (UniProt Q15554).
Data set [12] addresses R6IP peptide 64 (Homo sapiens) (UniProt Q6IQ26).

Where two headings read alike, the source gives them in different places.

Chain of CypA (P62937 2-165): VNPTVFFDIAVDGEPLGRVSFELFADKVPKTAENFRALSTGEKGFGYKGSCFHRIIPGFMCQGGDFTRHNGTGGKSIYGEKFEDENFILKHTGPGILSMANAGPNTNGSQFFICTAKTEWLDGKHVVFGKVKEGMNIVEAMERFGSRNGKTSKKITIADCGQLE
Chain of β-catenin (P35222 2-781): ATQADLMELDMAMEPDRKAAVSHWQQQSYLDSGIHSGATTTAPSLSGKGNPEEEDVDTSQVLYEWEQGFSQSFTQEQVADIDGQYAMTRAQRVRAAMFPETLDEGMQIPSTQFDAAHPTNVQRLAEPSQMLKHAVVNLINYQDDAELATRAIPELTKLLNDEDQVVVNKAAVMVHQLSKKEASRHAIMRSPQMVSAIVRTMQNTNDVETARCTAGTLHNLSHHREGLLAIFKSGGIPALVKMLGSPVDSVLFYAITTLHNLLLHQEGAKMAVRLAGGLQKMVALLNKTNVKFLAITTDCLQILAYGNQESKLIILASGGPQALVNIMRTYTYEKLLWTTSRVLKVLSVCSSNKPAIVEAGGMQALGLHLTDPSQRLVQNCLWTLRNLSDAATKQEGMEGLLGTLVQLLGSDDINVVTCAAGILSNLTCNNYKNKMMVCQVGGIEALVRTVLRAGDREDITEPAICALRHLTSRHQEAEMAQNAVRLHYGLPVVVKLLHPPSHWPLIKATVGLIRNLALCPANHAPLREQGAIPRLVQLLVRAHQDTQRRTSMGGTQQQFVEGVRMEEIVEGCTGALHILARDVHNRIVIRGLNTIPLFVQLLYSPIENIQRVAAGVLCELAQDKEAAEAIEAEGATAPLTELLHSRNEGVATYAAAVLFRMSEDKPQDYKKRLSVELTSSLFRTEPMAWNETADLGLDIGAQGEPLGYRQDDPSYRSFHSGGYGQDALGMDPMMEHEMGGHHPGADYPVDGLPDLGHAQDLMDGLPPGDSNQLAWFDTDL
Chain of Nrf2 peptide 41 (Homo sapiens) (Q16236 whole entry, looked up, tested part not stated): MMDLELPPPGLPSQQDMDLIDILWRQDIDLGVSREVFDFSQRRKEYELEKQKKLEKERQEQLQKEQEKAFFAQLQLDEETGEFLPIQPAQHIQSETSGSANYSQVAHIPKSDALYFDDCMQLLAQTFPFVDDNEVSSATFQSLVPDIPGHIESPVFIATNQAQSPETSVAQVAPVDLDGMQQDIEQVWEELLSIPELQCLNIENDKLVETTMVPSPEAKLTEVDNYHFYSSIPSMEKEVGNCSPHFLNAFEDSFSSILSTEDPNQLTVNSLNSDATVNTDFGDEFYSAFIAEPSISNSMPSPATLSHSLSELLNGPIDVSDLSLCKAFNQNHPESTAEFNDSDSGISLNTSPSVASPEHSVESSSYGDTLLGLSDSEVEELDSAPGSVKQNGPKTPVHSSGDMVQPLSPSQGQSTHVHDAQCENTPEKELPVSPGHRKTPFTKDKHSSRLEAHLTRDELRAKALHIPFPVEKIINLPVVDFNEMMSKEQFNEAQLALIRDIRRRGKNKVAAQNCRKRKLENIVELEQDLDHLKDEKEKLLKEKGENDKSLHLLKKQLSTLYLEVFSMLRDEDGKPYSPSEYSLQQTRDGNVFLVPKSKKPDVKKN
Chain of AIF peptide 40 (Homo sapiens) (O95831 whole entry, looked up, tested part not stated): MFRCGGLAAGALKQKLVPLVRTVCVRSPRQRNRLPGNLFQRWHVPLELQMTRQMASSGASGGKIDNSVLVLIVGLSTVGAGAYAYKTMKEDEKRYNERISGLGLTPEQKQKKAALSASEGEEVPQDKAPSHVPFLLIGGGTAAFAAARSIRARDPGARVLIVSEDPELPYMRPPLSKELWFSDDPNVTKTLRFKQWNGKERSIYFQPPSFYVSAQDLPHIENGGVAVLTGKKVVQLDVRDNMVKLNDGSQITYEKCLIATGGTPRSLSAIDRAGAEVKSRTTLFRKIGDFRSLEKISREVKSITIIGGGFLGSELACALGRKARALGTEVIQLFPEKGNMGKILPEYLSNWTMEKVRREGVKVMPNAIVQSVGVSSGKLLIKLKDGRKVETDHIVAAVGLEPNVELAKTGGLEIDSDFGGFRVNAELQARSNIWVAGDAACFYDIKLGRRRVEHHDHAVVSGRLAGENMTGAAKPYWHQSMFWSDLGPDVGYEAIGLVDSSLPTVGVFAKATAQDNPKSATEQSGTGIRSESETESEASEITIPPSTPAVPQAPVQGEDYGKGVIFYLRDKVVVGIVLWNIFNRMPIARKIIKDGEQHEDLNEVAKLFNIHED
Chain of SPSB2 (Q99619 whole entry): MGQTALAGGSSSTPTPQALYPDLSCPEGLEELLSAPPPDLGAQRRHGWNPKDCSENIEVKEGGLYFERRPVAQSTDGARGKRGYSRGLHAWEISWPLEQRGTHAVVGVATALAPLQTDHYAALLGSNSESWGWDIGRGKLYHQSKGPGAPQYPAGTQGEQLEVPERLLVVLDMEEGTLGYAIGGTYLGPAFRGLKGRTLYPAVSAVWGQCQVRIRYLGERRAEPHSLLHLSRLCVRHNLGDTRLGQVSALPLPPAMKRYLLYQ
Chain of Rab6a (P20340 2-208): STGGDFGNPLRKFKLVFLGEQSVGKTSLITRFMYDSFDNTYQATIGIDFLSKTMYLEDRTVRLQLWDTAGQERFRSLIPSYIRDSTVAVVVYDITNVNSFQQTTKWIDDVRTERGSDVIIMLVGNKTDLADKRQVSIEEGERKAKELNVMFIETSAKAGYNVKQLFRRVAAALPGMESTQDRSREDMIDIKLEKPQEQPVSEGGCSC
Chain of RAP1 (Q9NYB0 2-399): as the sequence (Q9NYB0 2-399) above
Chain of CK2β triazole cyclised peptide (Homo sapiens) (P67870 2-215): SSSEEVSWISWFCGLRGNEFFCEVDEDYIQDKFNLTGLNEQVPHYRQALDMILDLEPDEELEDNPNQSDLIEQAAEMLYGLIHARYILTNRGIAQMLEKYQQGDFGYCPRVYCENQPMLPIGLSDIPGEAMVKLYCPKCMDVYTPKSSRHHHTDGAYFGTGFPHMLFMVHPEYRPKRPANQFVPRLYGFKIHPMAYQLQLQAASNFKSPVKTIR
Chain of CK2α (P68400 whole entry): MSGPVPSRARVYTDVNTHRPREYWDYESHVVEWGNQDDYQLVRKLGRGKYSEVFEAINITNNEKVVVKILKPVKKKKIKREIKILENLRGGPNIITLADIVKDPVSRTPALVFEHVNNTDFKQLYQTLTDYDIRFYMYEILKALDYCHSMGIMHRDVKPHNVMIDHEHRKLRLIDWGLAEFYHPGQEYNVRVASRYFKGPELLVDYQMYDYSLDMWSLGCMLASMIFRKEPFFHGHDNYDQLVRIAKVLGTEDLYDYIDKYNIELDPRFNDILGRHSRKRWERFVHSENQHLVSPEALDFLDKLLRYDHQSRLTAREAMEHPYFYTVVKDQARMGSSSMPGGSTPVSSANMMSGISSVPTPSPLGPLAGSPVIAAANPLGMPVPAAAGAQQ
Chain of Keap1 (Q14145 whole entry): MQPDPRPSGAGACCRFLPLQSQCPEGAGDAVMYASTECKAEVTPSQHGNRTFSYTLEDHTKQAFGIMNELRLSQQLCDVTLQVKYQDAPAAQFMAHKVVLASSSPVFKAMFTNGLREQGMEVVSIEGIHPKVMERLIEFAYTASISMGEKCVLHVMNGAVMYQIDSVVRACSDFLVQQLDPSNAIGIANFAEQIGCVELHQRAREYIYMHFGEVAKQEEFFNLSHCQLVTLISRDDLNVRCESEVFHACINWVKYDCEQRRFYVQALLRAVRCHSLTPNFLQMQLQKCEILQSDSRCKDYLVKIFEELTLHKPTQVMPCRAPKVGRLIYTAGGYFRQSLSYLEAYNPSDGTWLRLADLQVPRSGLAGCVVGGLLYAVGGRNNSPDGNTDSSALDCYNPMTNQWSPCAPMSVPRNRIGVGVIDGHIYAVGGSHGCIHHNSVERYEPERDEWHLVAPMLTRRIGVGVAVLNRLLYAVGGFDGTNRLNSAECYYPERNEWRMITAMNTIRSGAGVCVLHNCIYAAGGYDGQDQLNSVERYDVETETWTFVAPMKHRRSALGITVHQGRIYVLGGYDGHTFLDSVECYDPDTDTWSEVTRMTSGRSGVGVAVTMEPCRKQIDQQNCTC

In general, Kd refers to the free concentration of one partner at which half of the binding sites on the other are occupied at equilibrium, for simple one-to-one binding. Consider CK2α (from UniProt P68400), for which the dissociation constant (Kd) in [1] is 460 nM.

Regarding Keap1 (from UniProt Q14145), in [2], the Kd is 27.3 nM.

For CypA (from UniProt P62937), the Kd in data set [3] was 2400 nM; in [4], 12000 nM; in data set [5] it was 850 nM; in data set [6], 5000 nM.

Usually Ki stands for the dissociation constant of the complex between target and ligand, obtained from inhibition or displacement. Turning to β-catenin (from UniProt P35222), the values for the inhibitory constant (Ki) in [7] and in [8] were 1900 nM and 960 nM, respectively. Moreover, in data set [9], the Kd was 616 nM.

As to SPSB2 (from UniProt Q99619), in [10], the Kd was 13.3 nM.

As to “TRF2 41-residue peptide (from UniProt Q15554)”, the dissociation constant (Kd) in the data set with RAP1 (Homo sapiens) was 16.5 nM.

As to RAP1 (from UniProt Q9NYB0), the Kd in data set [11] was 16.5 nM.

Turning to Rab6a (from UniProt P20340), the Kd in data set [12] is 7800 nM.
